# According to US20230129258A1 (Bicycle, published 2023):
# Starred links: 1 amine or outer side, 2 acyl side, 3 side chain; linkers in the order of their positions; H or OH if unused. Positions of bridges follow the written chain, without caps; N, C: chain ends. Non-standard residues stand in square brackets, D forms with d. Chains are numbered I, II in the order given. No end group written: not given here. dLys(PYA) = D-lysine Nε-acylated with 4-pentynoic acid, clicked (triazole) to the linker azide, O=C(CCc1cn([*:3])nn1)NCCCC[C@@H](N[*:1])C(=O)[*:2]; TATA = O=C(CC[*:1])N1CN(C(=O)CC[*:2])CN(C(=O)CC[*:3])C1; 1Nal = N[C@@H](Cc1cccc2ccccc12)C(=O)O; Hyp = O=C(O)[C@@H]1C[C@@H](O)CN1; hArg = N=C(N)NCCCC[C@H](N)C(=O)O; tBuAla = CC(C)(C)C[C@H](N)C(=O)O; Nle = CCCC[C@H](N)C(=O)O
# T1: Nectin-2 (2229-N2, R&D Systems) (UniProt Q92692 32-360, limits assumed, biotinylated)
# T1 sequence (looked up): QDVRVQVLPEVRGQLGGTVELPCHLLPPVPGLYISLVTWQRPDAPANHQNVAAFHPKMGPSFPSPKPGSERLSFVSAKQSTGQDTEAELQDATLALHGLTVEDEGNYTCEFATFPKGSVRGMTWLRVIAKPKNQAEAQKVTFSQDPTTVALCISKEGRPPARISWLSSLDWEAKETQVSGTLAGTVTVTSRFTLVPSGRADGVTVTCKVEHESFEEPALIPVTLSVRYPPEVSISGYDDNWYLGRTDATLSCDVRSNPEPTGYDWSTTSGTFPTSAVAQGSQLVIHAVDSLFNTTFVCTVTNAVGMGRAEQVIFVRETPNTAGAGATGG
# T2: Nectin-like-5 (2530-CD-050, R&D Systems) (UniProt P15151 27-343, biotinylated)
# T2 sequence (looked up): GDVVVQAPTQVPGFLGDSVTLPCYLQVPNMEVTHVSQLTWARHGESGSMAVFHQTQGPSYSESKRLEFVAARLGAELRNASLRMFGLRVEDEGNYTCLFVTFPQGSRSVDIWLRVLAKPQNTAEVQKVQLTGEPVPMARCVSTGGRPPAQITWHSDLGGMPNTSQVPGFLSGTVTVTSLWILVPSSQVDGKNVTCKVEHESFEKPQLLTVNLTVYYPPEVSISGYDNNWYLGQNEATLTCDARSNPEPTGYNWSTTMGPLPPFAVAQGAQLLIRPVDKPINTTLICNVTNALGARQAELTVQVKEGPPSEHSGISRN
# T3: Nectin-like-3 (4290-S4-050, R&D Systems) (UniProt Q8N3J6 25-367, biotinylated)
# T3 sequence (looked up): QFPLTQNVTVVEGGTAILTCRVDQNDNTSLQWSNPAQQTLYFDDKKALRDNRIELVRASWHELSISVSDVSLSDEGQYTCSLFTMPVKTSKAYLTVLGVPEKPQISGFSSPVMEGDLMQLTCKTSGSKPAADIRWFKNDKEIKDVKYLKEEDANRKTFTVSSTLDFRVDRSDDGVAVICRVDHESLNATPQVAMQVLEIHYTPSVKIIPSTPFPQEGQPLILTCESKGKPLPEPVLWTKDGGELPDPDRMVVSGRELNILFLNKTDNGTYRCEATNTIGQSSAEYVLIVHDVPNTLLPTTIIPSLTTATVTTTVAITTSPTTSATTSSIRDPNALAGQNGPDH
# T4: Nectin-like-2 (3519-S4-050, R&D Systems) (UniProt Q9BY67 45-374, biotinylated)
# T4 sequence (looked up): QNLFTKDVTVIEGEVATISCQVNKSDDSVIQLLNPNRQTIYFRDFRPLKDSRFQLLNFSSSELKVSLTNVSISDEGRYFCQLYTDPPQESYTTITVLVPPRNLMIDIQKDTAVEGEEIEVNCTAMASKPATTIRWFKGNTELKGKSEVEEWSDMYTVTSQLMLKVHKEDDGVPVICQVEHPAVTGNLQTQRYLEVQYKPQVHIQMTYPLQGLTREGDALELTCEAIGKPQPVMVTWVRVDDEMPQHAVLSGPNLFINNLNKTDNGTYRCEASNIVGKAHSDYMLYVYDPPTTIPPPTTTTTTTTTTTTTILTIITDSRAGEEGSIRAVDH
# T5: Nectin-like-4 (4164-S4, R&D Systems) (UniProt Q8NFZ8 21-324, biotinylated)
# T5 sequence (looked up): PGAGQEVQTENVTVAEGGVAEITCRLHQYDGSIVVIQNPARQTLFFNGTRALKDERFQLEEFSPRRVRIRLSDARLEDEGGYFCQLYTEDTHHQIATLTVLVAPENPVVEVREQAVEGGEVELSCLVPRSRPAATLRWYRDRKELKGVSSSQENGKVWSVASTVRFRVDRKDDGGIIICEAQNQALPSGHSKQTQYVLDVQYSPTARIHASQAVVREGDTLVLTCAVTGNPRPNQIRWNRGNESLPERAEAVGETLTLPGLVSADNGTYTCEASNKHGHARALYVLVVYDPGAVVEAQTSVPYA
# T6: human Nectin-4 extracellular domain (human, UniProt Q96NY8 32-349, biotinylated where captured on the streptavidin chip)
# T6 construct: extracellular domain; also called Nectin-4 (human); Biotinylated - Nectin-4 extracellular domain
# T6 sequence (looked up): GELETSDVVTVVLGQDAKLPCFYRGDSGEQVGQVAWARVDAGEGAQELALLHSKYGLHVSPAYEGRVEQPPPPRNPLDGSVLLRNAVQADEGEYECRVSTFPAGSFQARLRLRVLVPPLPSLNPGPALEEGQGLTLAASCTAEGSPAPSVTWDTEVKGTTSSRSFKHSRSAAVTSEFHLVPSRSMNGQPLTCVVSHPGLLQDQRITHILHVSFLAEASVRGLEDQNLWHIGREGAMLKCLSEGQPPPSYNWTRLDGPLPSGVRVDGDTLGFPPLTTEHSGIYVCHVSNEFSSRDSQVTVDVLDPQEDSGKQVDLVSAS
# B1: heterotandem bicyclic peptide complex BCY11863 (peptide)
# peptide 1: CP[1Nal][dD]CM[hArg]DWSTP[Hyp]WC
# peptide 2: Ac-C[tBuAla]PE[dLys(PYA)]PYCFADPY[Nle]CA
# modifications: linker I:1-I:5-I:15, II:1-II:8-II:15 via TATA; not fully specified (bridges); also: 1:2 complex: BCY8116 + 2x BCY8928
# notes: also called Nectin-4/CD137 heterotandem
# Tests used:
# [1] = target: CD137 on Jurkat reporter cells (Promega kit CS196005) (UniProt Q07011 24-255, limits assumed); test: cell-based or functional assay
# [2] = target: T7, human CD137 extracellular domain (human, UniProt Q07011 24-186, biotinylated where captured on the streptavidin chip); test: SPR, direct binding of BCY11863 to immobilized human CD137, 1:1 fit; avidity from two CD137 bicycles
# T7 construct: extracellular domain; Section 17 says only 'Recombinant human CD137 (R&D systems)'; also called CD137 (human); Recombinant human CD137 (R&D systems)
# [3] = target: Nectin-3 (3064-N3, R&D Systems) (UniProt Q9NQS3 58-404, limits assumed, biotinylated); test: SPR, biotinylated target on streptavidin surface
# [4] = target: T1, Nectin-2 (2229-N2, R&D Systems); test: SPR, biotinylated target on streptavidin surface
# [5] = target: T2, Nectin-like-5 (2530-CD-050, R&D Systems); test: SPR, biotinylated target on streptavidin surface
# [6] = target: T3, Nectin-like-3 (4290-S4-050, R&D Systems); test: SPR, biotinylated target on streptavidin surface
# [7] = target: T4, Nectin-like-2 (3519-S4-050, R&D Systems); test: SPR, biotinylated target on streptavidin surface
# [8] = target: T5, Nectin-like-4 (4164-S4, R&D Systems); test: SPR, biotinylated target on streptavidin surface
# [9] = target: T6, human Nectin-4 extracellular domain; test: SPR direct binding, biotinylated Nectin-4 ECD on streptavidin chip, 25° C., n = 7
# [10] = target: T6, human Nectin-4 extracellular domain; test: SPR, direct binding of BCY11863 to immobilized human Nectin-4, 1:1 fit
# [11] = target: T7, human CD137 extracellular domain; test: SPR dual binding, BCY11863 captured on biotinylated human Nectin-4, soluble CD137 ECD passed over, n = 4
# Sequence of CD137 on Jurkat reporter cells (Promega kit CS196005) (Q07011 24-255 limits assumed): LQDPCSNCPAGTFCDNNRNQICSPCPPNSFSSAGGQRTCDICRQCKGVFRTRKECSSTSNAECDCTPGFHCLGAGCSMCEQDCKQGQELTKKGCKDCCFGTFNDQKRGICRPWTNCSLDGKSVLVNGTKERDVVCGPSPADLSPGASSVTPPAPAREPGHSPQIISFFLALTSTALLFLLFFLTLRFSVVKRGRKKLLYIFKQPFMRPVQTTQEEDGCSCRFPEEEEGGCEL
# T7 sequence (Q07011 24-186): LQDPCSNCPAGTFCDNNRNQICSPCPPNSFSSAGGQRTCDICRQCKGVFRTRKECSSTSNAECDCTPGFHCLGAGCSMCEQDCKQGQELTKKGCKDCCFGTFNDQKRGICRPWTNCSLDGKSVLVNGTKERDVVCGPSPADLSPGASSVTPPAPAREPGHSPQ
# Sequence of Nectin-3 (3064-N3, R&D Systems) (Q9NQS3 58-404 limits assumed): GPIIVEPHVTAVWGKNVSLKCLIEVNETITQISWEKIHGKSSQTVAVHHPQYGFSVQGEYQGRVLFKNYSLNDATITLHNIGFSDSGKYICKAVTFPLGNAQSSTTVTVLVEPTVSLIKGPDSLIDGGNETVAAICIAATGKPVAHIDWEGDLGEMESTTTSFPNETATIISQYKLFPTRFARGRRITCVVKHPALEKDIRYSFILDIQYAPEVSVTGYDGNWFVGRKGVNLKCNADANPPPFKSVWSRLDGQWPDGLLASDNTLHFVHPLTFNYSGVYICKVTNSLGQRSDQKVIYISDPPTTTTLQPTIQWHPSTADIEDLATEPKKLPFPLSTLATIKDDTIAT
binder,measurement,setting,value
B1,"EC50 (nM), NCI-H292 co-culture",[1],0.168 nM
same,"Fold Induction over Background, NCI-H292 co-culture",[1],81 fold
same,kon,[2],952000 M⁻¹ s⁻¹
same,binding result,[3],no binding (tested: 5000 nM)
same,binding result,[4],no binding (tested: 5000 nM)
same,binding result,[5],no binding (tested: 5000 nM)
same,binding result,[6],no binding (tested: 5000 nM)
same,binding result,[7],no binding (tested: 5000 nM)
same,binding result,[8],no binding (tested: 5000 nM)
same,Kd,[9],5 nM
same,koff,[10],0.00229 s⁻¹
same,kon,[10],561000 M⁻¹ s⁻¹
same,Kd,[11],6.3 nM
